Broadly, the Kd is the equilibrium constant for the complex coming apart. Higher therefore signals weaker binding.

Where no end group is shown, it is not given here.

Assay [1] deals with T1, LC3B (UniProt Q9GZQ8 1-120). In words: ITC.
The target of assay [2] is T1, LC3B. Description: ITC; phosphorylated LIR peptide. (In ITC the heat of successive injections is recorded.)

B1: synthetic FAM134C-LIR peptide, non-phosphorylated form (peptide)
chain: LDTDAEGDDFELLDQSELSQ
modifications: synthetic peptide, non-phosphorylated; the exact peptide limits are not printed in the text (figure/supplement); limits taken as the UniProt LIR motif 445-450 plus 7 flanking residues on each side; terminal chemistry unknown
With B1, the Kd in assay [1] was 1030 nM.

B2: synthetic FAM134C-LIR peptide, phosphorylated form (peptide)
chain: LDTDAEGDDFELLDQSELSQ
modifications: also: phosphorylated close to the LIR motif, residues not given here
Take B2: in assay [2], the dissociation constant (Kd) came to 180 nM.

Source of the values: PMC10724265 (2023).
